Data as given in patent US12178803B2, “CD47 blockade with PARP inhibition for disease treatment” (TRILLIUM THERAPEUTICS ULC, priority 2018, dated 2024).

Assay: Systemic toxicity by clinical parameter scoring in the xenograft study
Format: in vivo
Conditions: SIRPαFc added to niraparib and/or RT
Description: Niraparib (50 mg/kg) was administered 1 hour prior to RT, 5 times per week for 1 week. Mice were treated with whole abdomen radiotherapy (external beam radiation therapy) at a dose of 2 Gy for 2 fractions using an image-guided small animal irradiator (225 kVp, 13 mA). Treatment was initiated on day 7 following tumor inoculation. Treatment efficacy was assessed by bioluminescent imaging (BLI) and animal survival. Systemic toxicity was evaluated by clinical parameter scoring.

## SIRPαFc: CD47 blocking fusion protein: IgV domain of human SIRPα V2 fused to a human IgG Fc region; preferred SEQ ID NO:8
  additional toxicity when combined with PARPi (niraparib) and/or RT: without showing additional toxicity
